Literature values in US20050074809A1, “System and method for systematic prediction of ligand/receptor activity” (priority 2001, published 2005).

Key:
HLA-DRB1*0101 molecule = HLA-DRB1*0101 molecule (Homo sapiens, UniProt P01903+P01911, A100R/D57E/F55L/F60I/F76Y/I96L/L162R/M171V/P40L/Q125E/R42F/V115G/Y59C); conditions: result in words; reported binding data
HLA-A*0201 molecule = HLA-A*0201 molecule (Homo sapiens, UniProt P04439, D140Y/D185E/D98H/E176V/E277Q/G131W/G231S/I119V/I121R/I166T/I218V/L300P/L318F/N151K/N90K/P208A/P217A/Q86G/Q94H/R138H/R169H/T345S); conditions: result in words; Kawakami and Rosenberg 1996

| Sequence | binding to HLA-DR1(0101) (HLA-DRB1*0101) (HLA-DRB1*0101 molecule) | binding to HLA-A*0201 (HLA-A*0201 molecule) |
| --- | --- | --- |
| FAGKNTDLE | does not bind | – |
| PLWGPRALV [Peptide of the mage-3 antigen (SWISSPROT:MAG3_HUMAN)] | – | binds |
| PKPPKPVSKMRMATPLLMQALPMG [Peptide of class II invariant chain (SwissProt Acc. P04233)] | binds | – |
